In the series the target is T1, Mte1 (YGR042W) (Saccharomyces cerevisiae, UniProt P53227 1-271).
T1 sequence: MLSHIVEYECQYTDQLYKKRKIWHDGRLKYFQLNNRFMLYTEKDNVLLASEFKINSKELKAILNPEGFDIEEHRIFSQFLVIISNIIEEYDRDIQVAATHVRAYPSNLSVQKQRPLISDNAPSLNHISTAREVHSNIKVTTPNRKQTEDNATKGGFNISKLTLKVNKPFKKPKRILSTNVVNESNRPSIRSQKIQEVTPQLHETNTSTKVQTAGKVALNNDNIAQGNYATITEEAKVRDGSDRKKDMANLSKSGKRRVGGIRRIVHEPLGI
The series can be described thus: EMSA. (A gel shift assay detects complexes by their altered migration in electrophoresis.)

This is an account of results in paper PMC4803055.

Broadly, the Kd is the free concentration of one partner at which half of the binding sites on the other are occupied at equilibrium, for simple one-to-one binding.

B1: ssDNA (oligo 1) (ssDNA)
DNA: AGCTATGACCATGATTACGAATTGCTTAATTCGTGCAGGCATGGTAGCT
B1 gave a Kd of 16 ± 3 nM.
